Measurements reported in patent US6653533 (PURDUE RESEARCH FOUNDATION, dated 1997).

Biological target: T1, Pti6 (Solanum lycopersicum (Tomato) …, UniProt O04682 1-248, limits assumed)
T1 construct: Tested as a yeast two-hybrid prey expressed from vector pJG4-5; also called prey of Pti6 (in pJG4-5)
Assay: yeast two-hybrid (LEU2 and lacZ reporters), Bicoid bait in pEG202, prey in pJG4-5
Experimental: Figure 2: FIG. 2 sets forth results of the Experiment described in Example 1 herein. Briefly, EGY48 yeast cells containing a prey of Pti4, Pti5 or Pti6 (in pJG4–5), and a bait of Pto, pto or Bicoid (in pEG202) were grown on galactose Ura⁻His⁻Trp⁻X-Gal medium. The plates were incubated at 30° C. for three days and photographed. Four independent, representative colonies are shown for each bait/prey combination.
Yeast strains carrying the Pto bait and a prey of Pti4, Pti5 or Pti6 grew in the absence of leucine, indicative of the LEU2 reporter gene activation. When grown on X-Gal plates, these yeast cells were blue as a result of the lacZ reporter gene activation. As determined by the intensity of blue color, the strength of interaction of Pto with these three preys is in the order of Pti6>Pti4>Pti5.

T1 sequence (O04682 whole entry): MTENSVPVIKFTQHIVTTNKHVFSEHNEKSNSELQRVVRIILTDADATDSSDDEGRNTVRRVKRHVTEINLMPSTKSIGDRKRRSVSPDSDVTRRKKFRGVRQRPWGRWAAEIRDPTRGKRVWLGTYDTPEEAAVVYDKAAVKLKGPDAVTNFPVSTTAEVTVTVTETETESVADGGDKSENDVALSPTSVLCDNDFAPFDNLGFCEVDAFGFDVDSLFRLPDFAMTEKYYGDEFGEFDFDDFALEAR

binding result: no binding
B1: Bicoid (other, UniProt P09081 2-160, looked up)
chain: AQPPPDQNFYHHPLPHTHTHPHPHSHPHPHSHPHPHHQHPQLQLPPQFRNPFDLLFDERTGAINYNYIRPYLPNQMPKPDVFPSEELPDSLVMRRPRRTRTTFTSSQIAELEQHFLQGRYLTAPRLADLSAKLALGTAQVKIWFKNRRRRHKIQSDQHK
notes: Control bait expressed from vector pEG202; also called arbitrary bait Bicoid (in pEG202)
